Test results as given in patent US20200181259A1 (Innovent, published 2020).
Where a chain is given by its changes, count along the chain named. One block for each binder: values may come before it.

How the values were obtained:
[1] = target: T1, human CD47 overexpressed on CHO cells (human, UniProt Q08722 19-292); assay: flow cytometry competition on CHO-hCD47 cells against 200 nM mouse Fc-labelled SIRPα
T1 construct: CHO cells transfected with pCHO1.0 bearing a human CD47 cDNA (Sino Biological); also called hCD47; CHO-hCD47 cells
Experimental: Then the cells were washed 3 times and subsequently incubated with a secondary antibody, goat-anti-mouse IgG-APC (Allophycocyanin) (Biolegend), in PBS with 0.1% BSA on ice for 30 min (in dark). Cells were washed 3 times. Flow cytometry assay was performed on Accuri C6 System (BD Biosciences) and MFI was calculated with C6 software.

[2] = target: T1, human CD47 overexpressed on CHO cells; assay: flow cytometry on CHO-hCD47 cells, PE anti-human IgG
Experimental: Then the cells were washed at least two times and incubated with a secondary antibody (PE-labelled goat anti-human IgG antibody, Southern Biotech, final concentration of 5 μg/ml) in PBS with 0.1% BSA on ice for 30 min (in dark). The cells were washed at least two times and analyzed by flow cytometry. Flow cytometry was performed on Accuri C6 System (BD Biosciences) and a concentration-dependent graph was fitted with GraphPad, according to MFI of the cells.

mouse CD47-Fc [3] = target: T2, mouse CD47-Fc (mouse, UniProt Q61735 19-140, limits assumed); assay: bio-light interferometry (ForteBio), IgG1 on AHQ tip, mouse CD47-Fc in solution, bivalent
T2 construct: not shown: Fc part
T2 sequence (looked up): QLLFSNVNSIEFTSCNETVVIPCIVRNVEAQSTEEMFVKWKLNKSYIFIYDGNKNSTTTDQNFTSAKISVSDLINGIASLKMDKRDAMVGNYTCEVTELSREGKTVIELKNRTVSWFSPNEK

Human CD47-Fc [4] = target: T3, Human CD47-Fc (human, UniProt Q08722 19-139, limits assumed); assay: bio-light interferometry (ForteBio), IgG1 on AHQ tip, human CD47-Fc 100 nM in solution, bivalent
T3 construct: the whole entry is named here; also called human CD47 (hCD47); CD47 antigen; not shown: Fc part

cynomolgus CD47-Fc = target: T4, cynomolgus CD47-Fc (cynomolgus, UniProt A0A2K5X523 19-139); assay: bio-light interferometry (ForteBio), IgG1 on AHQ tip, cynomolgus CD47-Fc 100 nM in solution, bivalent
T4 construct: not shown: Fc part

Human CD47-Fc [5] = target: T3, Human CD47-Fc; assay: bio-light interferometry (ForteBio), human CD47-Fc on AHQ tip, Fab 100 nM in solution, monovalent
mouse CD47-Fc [6] = target: T2, mouse CD47-Fc; assay: bio-light interferometry (ForteBio), IgG1 on AHQ tip, mouse CD47-Fc 100 nM in solution, bivalent
Experimental: In brief, Sensors were equilibrated off-line in assay buffer for 30 min and then tested on-line for 60 sec to establish the base line. The purified antibody obtained as described above was loaded on-line onto AHQ sensor (ForteBio) to perform ForteBio affinity measurement. Then, the sensor loaded with the antibody was exposed to 100 nM of CD47 antigen for 5 min, followed by transferring the sensor into the assay buffer for 5 min to measure the dissociation rate. A kinetics analysis was performed using the 1:1 binding model.

B1: ADI-26624 in IgG1 format produced in yeast cells (antibody)
heavy: not shown
light: DIQMTQSPSSVSASVGDRVTITCRASQGISRWLAWYQQKPGKAPKLLIYAASSLQSGVPSRFSGSGSGTDFTLTISSLQPEDFATYYCQQADLHPPLTFGGGTKVEIKRTVAAPSVFIFPPSDEQLKSGTASVVCLLNNFYPREAKVQWKVDNALQSGNSQESVTEQDSKDSTYSLSSTLTLSKADYEKHKVYACEVTHQGLSSPVTKSFNRGEC
notes: also called ADI26624-IgG1
IC50 [1]: 11.2 nM | EC50 [2]: 2.25 nM | binding result (mouse CD47-Fc [3]): no binding (tested: 100 nM) | Kd (Human CD47-Fc [4]): 1.05 nM

B2: ADI-26624 in IgG4 format produced in CHO cells (antibody)
heavy: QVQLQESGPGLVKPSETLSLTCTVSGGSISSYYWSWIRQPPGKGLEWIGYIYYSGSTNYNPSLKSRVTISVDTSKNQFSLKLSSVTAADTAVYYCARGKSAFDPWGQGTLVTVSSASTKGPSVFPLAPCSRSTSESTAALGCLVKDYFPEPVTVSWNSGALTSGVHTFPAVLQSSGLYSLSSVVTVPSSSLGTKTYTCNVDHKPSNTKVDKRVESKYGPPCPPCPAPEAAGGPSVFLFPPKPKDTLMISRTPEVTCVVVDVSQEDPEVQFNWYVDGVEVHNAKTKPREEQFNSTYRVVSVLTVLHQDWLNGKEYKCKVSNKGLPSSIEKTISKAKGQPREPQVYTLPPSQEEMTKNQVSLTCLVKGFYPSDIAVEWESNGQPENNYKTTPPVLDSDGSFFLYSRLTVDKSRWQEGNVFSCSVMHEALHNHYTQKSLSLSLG
light: B1 light
notes: also called ADI26624-IgG4
IC50 [1]: 1.04 nM

B3: ADI-29336 in IgG4 format produced in CHO cells (antibody)
heavy: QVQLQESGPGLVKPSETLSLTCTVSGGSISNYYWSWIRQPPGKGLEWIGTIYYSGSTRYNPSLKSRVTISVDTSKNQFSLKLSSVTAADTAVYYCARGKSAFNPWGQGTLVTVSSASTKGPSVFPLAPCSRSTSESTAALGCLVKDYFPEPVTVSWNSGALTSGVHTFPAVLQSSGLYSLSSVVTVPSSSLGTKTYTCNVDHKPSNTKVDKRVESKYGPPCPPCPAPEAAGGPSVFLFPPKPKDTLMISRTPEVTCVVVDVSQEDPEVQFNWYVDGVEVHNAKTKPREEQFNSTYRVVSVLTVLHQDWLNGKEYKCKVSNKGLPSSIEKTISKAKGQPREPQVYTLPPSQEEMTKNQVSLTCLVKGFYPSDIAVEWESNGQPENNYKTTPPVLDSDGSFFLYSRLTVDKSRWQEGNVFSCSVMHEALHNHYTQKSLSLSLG
light: B1 light
notes: also called ADI29336-IgG4
IC50 [1]: 1.39 nM | EC50 [2]: 2.48 nM

B4: ADI-29336 in IgG1 format produced in yeast cells (antibody)
heavy: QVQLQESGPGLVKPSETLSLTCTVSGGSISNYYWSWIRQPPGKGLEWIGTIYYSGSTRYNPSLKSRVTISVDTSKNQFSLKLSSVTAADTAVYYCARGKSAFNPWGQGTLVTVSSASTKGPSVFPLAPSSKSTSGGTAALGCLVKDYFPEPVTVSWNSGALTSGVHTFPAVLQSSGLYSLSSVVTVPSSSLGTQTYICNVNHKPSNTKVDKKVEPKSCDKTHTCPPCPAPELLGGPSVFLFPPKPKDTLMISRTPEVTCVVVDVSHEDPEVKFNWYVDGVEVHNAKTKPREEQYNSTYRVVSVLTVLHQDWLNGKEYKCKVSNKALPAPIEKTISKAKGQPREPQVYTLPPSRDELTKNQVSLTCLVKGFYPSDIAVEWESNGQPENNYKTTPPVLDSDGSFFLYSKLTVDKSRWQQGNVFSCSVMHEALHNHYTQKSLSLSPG
light: B1 light
notes: also called ADI29336-IgG1
Kd (cynomolgus CD47-Fc): 0.544 nM | IC50 [1]: 8.55 nM | EC50 [2]: 6.72 nM | binding result (mouse CD47-Fc [3]): no binding (tested: 100 nM) | Kd (Human CD47-Fc [4]): 0.477 nM

B5: ADI-30794 in IgG1 format produced in yeast cells (antibody, V domains shown)
VH: EVQLLESGGGLVQPGGSLRLSCAASGFTFGNYAMSWVRQAPGKGLEWVSAISGSGGKTYYADSVKGRFTISRDNSKNTLYLQMNSLRAEDTAVYYCAKTAIYYGFDLWGRGTLVTVSS
VL: DIQLTQSPSSVSASVGDRVTITCRASQGISSWLAWYQQKPGKAPKLLIYGASSLQSGVPSRFSGSGSGTDFTLTISSLQPEDFATYYCQQKNPFPPFFGGGTKVEIKR
notes: also called ADI 30794-IgG1
EC50 [2]: 3.7 nM | binding result (mouse CD47-Fc [3]): no binding (tested: 100 nM) | Kd (Human CD47-Fc [4]): 0.562 nM

B6: ADI-29341 in Fab format (Fab, V domains shown)
VH: QVQLQESGPGLVKPSETLSLTCTVSGGSIEHYYWSWIRQPPGKGLEWIGYIYYSGSTNYNPSLKSRVTISVDTSKNQFSLKLSSVTAADTAVYYCARGKTGSAAWGQGTLVTVSS
VL: B5 VL with L4M, S31R, G50A, K91T, N92V, P93S, P96I, F97T
Kd (Human CD47-Fc [5]): 4.62 nM

B8: ADI-30793 in Fab format (Fab, V domains shown)
VH: B5 VH with G30D, N31S, S35T, A50V, A100H, I101L
VL: B5 VL
Kd (Human CD47-Fc [5]): 9.34 nM

B10: ADI-30793 in IgG1 format produced in yeast cells (antibody, V domains shown)
VH: B5 VH with G30D, N31S, S35T, A50V, A100H, I101L
VL: B5 VL
notes: also called ADI 30793-IgG1
Kd (cynomolgus CD47-Fc): 0.584 nM | EC50 [2]: 2.92 nM | Kd (mouse CD47-Fc [6]): 4.57 nM | Kd (Human CD47-Fc [4]): 0.632 nM

B11: ADI-30794 in Fab format (Fab, V domains shown)
VH: B5 VH
VL: B5 VL
Kd (Human CD47-Fc [5]): 3.13 nM

B12: ADI-26624 in Fab format (Fab, V domains shown)
VH: B6 VH with E30S, H31S, T100S, G101A, S102F, A103D, A104P
VL: DIQMTQSPSSVSASVGDRVTITCRASQGISRWLAWYQQKPGKAPKLLIYAASSLQSGVPSRFSGSGSGTDFTLTISSLQPEDFATYYCQQADLHPPLTFGGGTKVEIKR
Kd (Human CD47-Fc [5]): 65.8 nM

B14: ADI-29341 in IgG1 format produced in yeast cells (antibody)
heavy: not shown
light: DIQMTQSPSSVSASVGDRVTITCRASQGISRWLAWYQQKPGKAPKLLIYAASSLQSGVPSRFSGSGSGTDFTLTISSLQPEDFATYYCQQTVSFPITFGGGTKVEIKRTVAAPSVFIFPPSDEQLKSGTASVVCLLNNFYPREAKVQWKVDNALQSGNSQESVTEQDSKDSTYSLSSTLTLSKADYEKHKVYACEVTHQGLSSPVTKSFNRGEC
notes: also called ADI29341-IgG1
IC50 [1]: 2.48 nM | EC50 [2]: 3.34 nM | binding result (mouse CD47-Fc [3]): no binding (tested: 100 nM) | Kd (Human CD47-Fc [4]): 0.501 nM

B15: ADI-29371 in IgG1 format produced in yeast cells (antibody)
heavy: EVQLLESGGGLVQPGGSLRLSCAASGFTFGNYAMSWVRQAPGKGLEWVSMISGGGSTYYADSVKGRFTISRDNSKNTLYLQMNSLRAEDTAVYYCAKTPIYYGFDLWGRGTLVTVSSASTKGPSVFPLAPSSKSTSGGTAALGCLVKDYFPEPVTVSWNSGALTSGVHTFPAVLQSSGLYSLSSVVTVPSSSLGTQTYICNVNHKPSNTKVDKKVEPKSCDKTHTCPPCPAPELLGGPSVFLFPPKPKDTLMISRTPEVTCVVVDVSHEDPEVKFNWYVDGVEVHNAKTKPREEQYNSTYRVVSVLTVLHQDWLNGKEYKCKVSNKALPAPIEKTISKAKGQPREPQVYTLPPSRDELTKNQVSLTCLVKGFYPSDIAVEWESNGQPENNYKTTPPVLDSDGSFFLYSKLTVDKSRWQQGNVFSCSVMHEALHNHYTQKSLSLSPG
light: B14 light with M4L, R31S, A50G, T91K, V92N, S93P, I96P
notes: also called ADI 29371-IgG1
Kd (cynomolgus CD47-Fc): 1.41 nM | EC50 [2]: 2.13 nM | binding result (mouse CD47-Fc [3]): no binding (tested: 100 nM) | Kd (Human CD47-Fc [4]): 1.95 nM

The remaining lines, values ahead:

Kd (Human CD47-Fc [5]): 218 nM
B7: ADI-29371 in Fab format (Fab, V domains shown)
VH: EVQLLESGGGLVQPGGSLRLSCAASGFTFGNYAMSWVRQAPGKGLEWVSMISGGGSTYYADSVKGRFTISRDNSKNTLYLQMNSLRAEDTAVYYCAKTPIYYGFDLWGRGTLVTVSS
VL: B5 VL with F97T

Kd (cynomolgus CD47-Fc): 3.39 nM | EC50 [2]: 3.77 nM | binding result (mouse CD47-Fc [3]): no binding (tested: 100 nM) | Kd (Human CD47-Fc [4]): 5.38 nM
B9: ADI-26591 in IgG1 format, expressed in yeast (antibody, V domains shown)
VH: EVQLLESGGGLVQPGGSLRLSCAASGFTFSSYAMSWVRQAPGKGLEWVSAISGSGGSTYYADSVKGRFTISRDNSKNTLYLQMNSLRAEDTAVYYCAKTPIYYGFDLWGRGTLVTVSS
VL: B5 VL with F97T
notes: also called ADI 26591-IgG1

Kd (Human CD47-Fc [5]): 1.32 nM
B13: ADI-29336 in Fab format (Fab, V domains shown)
VH: B6 VH with E30S, H31N, Y50T, N58R, T100S, G101A, S102F, A103N, A104P
VL: B12 VL

EC50 [2]: 2.31 nM
B16: ADI-29371 in IgG4 format produced in CHO cells (antibody)
heavy: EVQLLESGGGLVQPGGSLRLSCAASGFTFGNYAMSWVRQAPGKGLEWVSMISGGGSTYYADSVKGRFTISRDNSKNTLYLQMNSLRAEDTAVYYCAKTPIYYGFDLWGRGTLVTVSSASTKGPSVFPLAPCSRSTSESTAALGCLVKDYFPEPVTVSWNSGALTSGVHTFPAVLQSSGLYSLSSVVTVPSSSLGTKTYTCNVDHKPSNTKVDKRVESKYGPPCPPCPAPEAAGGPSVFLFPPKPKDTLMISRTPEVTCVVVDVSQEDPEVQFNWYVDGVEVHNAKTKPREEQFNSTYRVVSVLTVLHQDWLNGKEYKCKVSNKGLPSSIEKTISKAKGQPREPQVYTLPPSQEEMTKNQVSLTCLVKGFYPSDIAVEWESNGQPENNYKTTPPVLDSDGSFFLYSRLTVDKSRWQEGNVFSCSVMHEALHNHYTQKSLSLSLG
light: B14 light with M4L, R31S, A50G, T91K, V92N, S93P, I96P
notes: also called ADI 29371-IgG4

IC50 [1]: 0.604 nM | EC50 [2]: 1.89 nM
B17: ADI-29341 in IgG4 format produced in CHO cells (antibody)
heavy: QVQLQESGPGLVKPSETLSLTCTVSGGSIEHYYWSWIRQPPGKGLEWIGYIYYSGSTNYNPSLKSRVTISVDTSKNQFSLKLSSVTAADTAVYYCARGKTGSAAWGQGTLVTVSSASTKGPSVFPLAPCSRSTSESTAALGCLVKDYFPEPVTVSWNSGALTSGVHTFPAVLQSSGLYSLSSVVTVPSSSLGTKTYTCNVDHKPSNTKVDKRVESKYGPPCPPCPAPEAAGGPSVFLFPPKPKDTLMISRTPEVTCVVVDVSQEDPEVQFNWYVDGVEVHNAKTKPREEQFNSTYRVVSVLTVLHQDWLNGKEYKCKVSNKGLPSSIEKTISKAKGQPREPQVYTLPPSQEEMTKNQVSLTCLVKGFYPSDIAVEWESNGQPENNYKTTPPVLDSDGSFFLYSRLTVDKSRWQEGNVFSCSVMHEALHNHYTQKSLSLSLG
light: B14 light
notes: also called ADI29341-IgG4
